US20210147504A1

Legend:
[1] = biological target: rat ANP receptor (NPR-A) (rat) (UniProt P18910); experiment: cell-based or functional assay
[2] = biological target: rat CNP receptor (NPR-B) (rat) (UniProt P16067); experiment: cell-based or functional assay
Sequence of rat CNP receptor (NPR-B) (rat) (P16067 17-1047): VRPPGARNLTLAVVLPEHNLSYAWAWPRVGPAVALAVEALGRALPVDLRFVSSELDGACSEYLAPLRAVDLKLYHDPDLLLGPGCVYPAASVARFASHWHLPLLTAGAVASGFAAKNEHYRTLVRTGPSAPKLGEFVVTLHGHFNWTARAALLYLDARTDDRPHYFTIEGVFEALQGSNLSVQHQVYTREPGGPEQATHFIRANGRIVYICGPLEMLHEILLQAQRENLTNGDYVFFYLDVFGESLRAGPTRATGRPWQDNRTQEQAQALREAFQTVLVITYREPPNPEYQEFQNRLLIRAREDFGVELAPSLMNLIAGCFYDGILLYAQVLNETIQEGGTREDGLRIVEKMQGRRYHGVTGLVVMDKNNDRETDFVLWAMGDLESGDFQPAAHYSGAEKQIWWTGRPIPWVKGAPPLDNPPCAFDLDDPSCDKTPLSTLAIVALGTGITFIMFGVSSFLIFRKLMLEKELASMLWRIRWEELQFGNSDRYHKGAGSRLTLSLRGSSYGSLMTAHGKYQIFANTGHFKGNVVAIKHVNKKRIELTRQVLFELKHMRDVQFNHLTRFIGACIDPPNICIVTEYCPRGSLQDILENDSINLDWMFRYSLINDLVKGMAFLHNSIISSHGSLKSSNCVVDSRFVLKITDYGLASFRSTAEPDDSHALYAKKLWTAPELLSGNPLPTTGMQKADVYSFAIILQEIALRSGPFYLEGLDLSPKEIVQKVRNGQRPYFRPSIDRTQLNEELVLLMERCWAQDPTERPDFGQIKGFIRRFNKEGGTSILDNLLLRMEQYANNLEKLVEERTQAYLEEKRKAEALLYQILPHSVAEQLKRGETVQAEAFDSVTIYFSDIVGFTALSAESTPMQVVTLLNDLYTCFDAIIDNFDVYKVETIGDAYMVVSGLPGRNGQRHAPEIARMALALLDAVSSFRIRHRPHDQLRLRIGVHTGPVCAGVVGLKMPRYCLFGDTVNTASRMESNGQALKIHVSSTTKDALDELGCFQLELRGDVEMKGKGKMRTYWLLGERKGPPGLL

Sequence of rat ANP receptor (NPR-A) (rat) (P18910 29-1057): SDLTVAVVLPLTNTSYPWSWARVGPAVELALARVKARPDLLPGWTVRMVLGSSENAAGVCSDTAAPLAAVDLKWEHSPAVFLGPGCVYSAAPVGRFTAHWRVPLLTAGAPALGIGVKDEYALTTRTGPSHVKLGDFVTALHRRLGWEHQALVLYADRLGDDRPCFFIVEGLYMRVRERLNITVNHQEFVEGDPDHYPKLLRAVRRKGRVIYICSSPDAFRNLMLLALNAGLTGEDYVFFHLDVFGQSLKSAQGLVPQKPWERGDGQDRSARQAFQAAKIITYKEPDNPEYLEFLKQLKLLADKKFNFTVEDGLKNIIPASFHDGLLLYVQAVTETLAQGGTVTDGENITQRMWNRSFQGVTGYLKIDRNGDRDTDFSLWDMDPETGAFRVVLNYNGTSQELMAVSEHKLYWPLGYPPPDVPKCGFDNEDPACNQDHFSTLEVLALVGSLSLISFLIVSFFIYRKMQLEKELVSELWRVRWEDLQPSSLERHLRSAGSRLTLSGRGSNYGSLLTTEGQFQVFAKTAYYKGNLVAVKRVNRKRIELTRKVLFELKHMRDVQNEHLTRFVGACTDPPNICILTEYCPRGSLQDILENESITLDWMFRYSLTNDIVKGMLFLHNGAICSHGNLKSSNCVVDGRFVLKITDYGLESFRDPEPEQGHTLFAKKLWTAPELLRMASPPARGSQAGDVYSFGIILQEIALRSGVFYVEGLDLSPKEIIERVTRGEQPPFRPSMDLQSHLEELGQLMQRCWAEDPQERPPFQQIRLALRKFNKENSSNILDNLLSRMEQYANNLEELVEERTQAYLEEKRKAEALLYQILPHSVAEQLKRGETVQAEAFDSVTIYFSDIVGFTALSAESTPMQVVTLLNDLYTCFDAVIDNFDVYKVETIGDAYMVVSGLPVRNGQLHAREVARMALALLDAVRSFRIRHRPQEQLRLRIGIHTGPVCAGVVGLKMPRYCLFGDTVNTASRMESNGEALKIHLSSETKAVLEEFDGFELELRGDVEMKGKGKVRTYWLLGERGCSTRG

Binder | EC50, fluorescence signal of rat NPR-A cGMP reporter CHO cell line (GCaMP6/CNGA2) [1] [pM] | EC50, luminescence signal of rat NPR-B cGMP reporter cell line [2] [pM]
SLRRSSCFGGRIDRIGAQSGLGCNSFRY (peptide, from a related filing) [ANP (Bachem, H-2100)] | 220 | 
GLSKGCFGLKLDRIGSMSGLGC (peptide, from a related filing) [CNP (Bachem, H-1296)] |  | 24
